{"source": "the RNAGym collection of RNA variant scans (doi:10.1021/acssynbio.7b00057)", "parents": {"B1": {"name": "Pistol ribozyme (parent)", "chain": "GGGUCGUUGUUCCAUAAUCGCGUGGAUAUGGCACGCAAGUUUCUACCGGGCACCGUAAAUGUCCGACUGGAGCCGUUCGGGCGGCUAUAAACAGACCUCAGGCCCGAAGCGUGGCGGCACCUGCCGCCGGUGGUAAAAAAGAUCGGAAGAGCACACGUCU"}}}
{"variants_of": "B1", "test": "aptazyme ON/OFF ratio, guanine; higher = stronger switching; co-transcriptional cleavage with and without guanine"}
{"variant": "U7G U8A G9U U10A U11C C13A", "aptazyme ON/OFF ratio": 1.04}
{"variant": "U7G U8A G9U U10A U11A C12U C13G", "aptazyme ON/OFF ratio": 1.07}
{"variant": "U7G U8A G9U U10A U11A C12U C13U", "aptazyme ON/OFF ratio": 1.06}
{"variant": "U7G U8A G9U U10A U11A C12U C13A", "aptazyme ON/OFF ratio": 1.07}
{"variant": "U7G U8A G9U U10C C12G C13G", "aptazyme ON/OFF ratio": 1.29}
{"variant": "U7G U8A G9U U10C C12G C13U", "aptazyme ON/OFF ratio": 1.19}
{"variant": "U7G U8A G9U U10C C12G C13A", "aptazyme ON/OFF ratio": 1.28}
{"variant": "U7G U8A G9U C12A C13G", "aptazyme ON/OFF ratio": 1.05}
{"variant": "U7G U8A G9U C12A C13U", "aptazyme ON/OFF ratio": 1.1}
{"variant": "U7G U8A G9U C12A C13A", "aptazyme ON/OFF ratio": 1.1}
{"variant": "U7G U8A G9U", "aptazyme ON/OFF ratio": 2.15}
{"variant": "U7G U8A G9U U10G U11A C12A", "aptazyme ON/OFF ratio": 1.09}
{"variant": "U7G U8A G9U U10G U11A C12G", "aptazyme ON/OFF ratio": 1.09}
{"variant": "U7G U8A G9U U10G U11A C12U", "aptazyme ON/OFF ratio": 1.04}
{"variant": "U7G U8A G9U U11C C12U", "aptazyme ON/OFF ratio": 1.19}
{"variant": "U7G U8A G9U U11C C12G", "aptazyme ON/OFF ratio": 1.11}
{"variant": "U7G U8A G9U U11C C12A", "aptazyme ON/OFF ratio": 1.16}
{"variant": "U7G U8A U10A U11C C12G C13A", "aptazyme ON/OFF ratio": 1.28}
{"variant": "U7G U8A U10A U11C C12G C13U", "aptazyme ON/OFF ratio": 1.18}
{"variant": "U7G U8A U10A U11C C12G C13G", "aptazyme ON/OFF ratio": 1.07}
{"variant": "U7G U8A G9U U11G C12G C13A", "aptazyme ON/OFF ratio": 1.01}
{"variant": "U7G U8A G9U U11G C12G C13U", "aptazyme ON/OFF ratio": 1.06}
{"variant": "U7G U8A G9U U11G C12G C13G", "aptazyme ON/OFF ratio": 1.03}
{"variant": "U7G U8A G9U C12G C13A", "aptazyme ON/OFF ratio": 1.11}
{"variant": "U7G U8A G9U C12G C13G", "aptazyme ON/OFF ratio": 1.07}
{"variant": "U7G U8A G9U C12G C13U", "aptazyme ON/OFF ratio": 1.17}
{"variant": "U7G U8A G9U U10C C12G", "aptazyme ON/OFF ratio": 1.52}
{"variant": "U7G U8A G9U U10C C12A", "aptazyme ON/OFF ratio": 1.2}
{"variant": "U7G U8A G9U U10C C12U", "aptazyme ON/OFF ratio": 1.32}
{"variant": "U7G U8A G9U U10C U11G C13U", "aptazyme ON/OFF ratio": 1.09}
{"variant": "U7G U8A G9U U10C U11G C13A", "aptazyme ON/OFF ratio": 1.1}
{"variant": "U7G U8A G9U U10C U11G C13G", "aptazyme ON/OFF ratio": 1.09}
{"variant": "U7G U8A G9U U11C C12A C13A", "aptazyme ON/OFF ratio": 1.1}
{"variant": "U7G U8A G9U U11C C12A C13G", "aptazyme ON/OFF ratio": 1.07}
{"variant": "U7G U8A G9U U11C C12A C13U", "aptazyme ON/OFF ratio": 1.16}
{"variant": "U7G U8A G9C U11G C12U C13U", "aptazyme ON/OFF ratio": 1.19}
{"variant": "U7G U8A G9C U11G C12U C13G", "aptazyme ON/OFF ratio": 1.07}
{"variant": "U7G U8A G9U U11A", "aptazyme ON/OFF ratio": 1.39}
{"variant": "U7G U8A G9U U11C", "aptazyme ON/OFF ratio": 1.08}
{"variant": "U7G U8A G9U U11G", "aptazyme ON/OFF ratio": 1.17}
{"variant": "U7G U8A G9U U10A C12A", "aptazyme ON/OFF ratio": 1.05}
{"variant": "U7G U8A G9U U10A C12G", "aptazyme ON/OFF ratio": 1.06}
{"variant": "U7G U8A G9U U10A C12U", "aptazyme ON/OFF ratio": 1.03}
{"variant": "U7G U8A G9U U10C U11G C12A C13G", "aptazyme ON/OFF ratio": 1.05}
{"variant": "U7G U8A G9U U10C U11G C12A C13U", "aptazyme ON/OFF ratio": 1.11}
{"variant": "U7G U8A G9U U10C U11G C12A C13A", "aptazyme ON/OFF ratio": 1.08}
{"variant": "U7G U8A G9U U10A U11A C12G C13G", "aptazyme ON/OFF ratio": 1.09}
{"variant": "U7G U8A G9U U10A U11A C12G C13U", "aptazyme ON/OFF ratio": 1.06}
{"variant": "U7G U8A G9U U10A U11A C12G C13A", "aptazyme ON/OFF ratio": 1.05}
{"variant": "U7G U8A U10A", "aptazyme ON/OFF ratio": 1.35}
{"variant": "U7G U8A U10C", "aptazyme ON/OFF ratio": 2.69}
{"variant": "U7G U8A G9U U10A C12A C13G", "aptazyme ON/OFF ratio": 1.06}
{"variant": "U7G U8A G9U U10A C12A C13A", "aptazyme ON/OFF ratio": 1.04}
{"variant": "U7G U8A G9U U10A C12A C13U", "aptazyme ON/OFF ratio": 1.06}
{"variant": "U7G U8A G9U U10C", "aptazyme ON/OFF ratio": 3.13}
{"variant": "U7G U8A G9U U10A", "aptazyme ON/OFF ratio": 1.46}
{"variant": "U7G U8A G9U U10G", "aptazyme ON/OFF ratio": 1.51}
{"variant": "U7G U8A G9U U10C U11G C12G C13G", "aptazyme ON/OFF ratio": 1.05}
{"variant": "U7G U8A G9U U10C U11G C12G C13A", "aptazyme ON/OFF ratio": 1.07}
{"variant": "U7G U8A G9U U10C U11G C12G C13U", "aptazyme ON/OFF ratio": 1.02}
{"variant": "U7G U8A G9U U10G C12U C13A", "aptazyme ON/OFF ratio": 1.05}
{"variant": "U7G U8A G9U U10G C12U C13G", "aptazyme ON/OFF ratio": 1.03}
{"variant": "U7G U8A G9U U10G C12U C13U", "aptazyme ON/OFF ratio": 1.13}
{"variant": "U7G U8A G9U U11C C13A", "aptazyme ON/OFF ratio": 1.1}
{"variant": "U7G U8A G9U U11C C13U", "aptazyme ON/OFF ratio": 1.09}
{"variant": "U7G U8A G9U U11C C13G", "aptazyme ON/OFF ratio": 1.05}
{"variant": "U7G U8A G9U U10A U11G C12U C13U", "aptazyme ON/OFF ratio": 1.02}
{"variant": "U7G U8A G9U U10A U11G C12U C13A", "aptazyme ON/OFF ratio": 1.07}
{"variant": "U7G U8A G9U U10A U11G C12U C13G", "aptazyme ON/OFF ratio": 1.08}
{"variant": "U7G U8A U10A U11G C12A C13A", "aptazyme ON/OFF ratio": 1.17}
{"variant": "U7G U8A U10A U11G C12A C13G", "aptazyme ON/OFF ratio": 1.19}
{"variant": "U7G U8A U10A U11G C12A C13U", "aptazyme ON/OFF ratio": 1.17}
{"variant": "U7G U8A G9U U10A U11A C12A C13G", "aptazyme ON/OFF ratio": 1.08}
{"variant": "U7G U8A G9U U10A U11A C12A C13U", "aptazyme ON/OFF ratio": 1.04}
{"variant": "U7G U8A G9U U10A U11A C12A C13A", "aptazyme ON/OFF ratio": 1.13}
{"variant": "U7G U8A G9U U10G C12U", "aptazyme ON/OFF ratio": 1.13}
{"variant": "U7G U8A G9U U10G C12G", "aptazyme ON/OFF ratio": 1.07}
{"variant": "U7G U8A G9U U10G C12A", "aptazyme ON/OFF ratio": 1.09}
{"variant": "U7G U8A G9U U10A U11C C12U C13G", "aptazyme ON/OFF ratio": 1.07}
{"variant": "U7G U8A G9U U10A U11C C12U C13U", "aptazyme ON/OFF ratio": 1.01}
{"variant": "U7G U8A G9U U10A U11C C12U C13A", "aptazyme ON/OFF ratio": 1.07}
{"variant": "U7G U8A G9U U10G U11G C12G C13U", "aptazyme ON/OFF ratio": 1.05}
{"variant": "U7G U8A G9U U10G U11G C12G C13G", "aptazyme ON/OFF ratio": 1.24}
